Common to all, as to test: SEC
In general terms: In gel filtration, larger molecules generally elute earlier.

Data set [1] concerns the target mtGGGPS_W141A (Methanothermobacter thermautotrophicus).
In data set [2] the target is mtGGGPS_W141H (Methanothermobacter thermautotrophicus).
Data set [3] addresses GGGPS of Nitrososphaera viennensis (nvGGGPS) (Nitrososphaera viennensis).
The data set “SEC” deals with the molecule itself.

The results in this text go back to article PMC7888582 (Protein Science : A Publication of the Protein Society, 2021).

Take mtGGGPS_W141A (enzyme): the stoichiometry N – broadly, the number of molecules, sites or subunits per partner or assembly – in data set [1] is 2.
For mtGGGPS_W141H (enzyme), the stoichiometry N in data set [2] stood at 6.
Consider “GGGPS of Nitrososphaera viennensis (nvGGGPS) (enzyme)”, for which the stoichiometry N in data set [3] was 6.

B1: wild-type Methanothermobacter thermautotrophicus GGGPS (mtGGGPS) (enzyme)
chain: MKVEDYFHDILRERKIHLTLIDPEEQTPEEAVEIARAAIRGGTDGIMLGGSTTDSSELDNTARALRENIDVPIILFPGNTTGVSRYADAIFFMSLLNSTNPYWIIGAQALGAATVKKMGIEALPMGYLVVEPGGTVGWVGDTKPVPRNKPDIAAAYAMAAEFLGMRLFYLEAGSGAPEHVPEEMIALVKRCTDQILIVGGGIRSGEDAARVAGAGADVVVTGTVVENSDNVEDKIREIVEGMGSV
With B1, the “stoichiometry N” value in the data set “SEC” was determined as 6.
